Series [1] concerns the target recombinant murine proNGF (proNGF25, the short form of the precursor protein) (murine) (UniProt P01139). Description: NMR diffusion (PFG-LED); diffusion compared with model proteins (IscS dimer, DHFR, NusA KH domain); phosphate buffer pH 7, 25°C.
Series [2] concerns the molecule itself. Description: 1D 1H NMR spectrum (linewidths); unlabelled NGF; phosphate buffer pH 7, 25°C.

By stoichiometry N is commonly meant a count of units in the complex or per binding partner. For the molecule “recombinant murine proNGF (proNGF25, the short form of the precursor protein) (from UniProt P01139 19-241) (natural protein)”, in series [1], the stoichiometry N is 2.

B1: mature murine Nerve Growth Factor (NGF) (natural protein, UniProt P01139 122-241, looked up)
chain: SSTHPVFHMGEFSVCDSVSVWVGDKTTATDIKGKEVTVLAEVNINNSVFRQYFFETKCRASNPVESGCRGIDSKHWNSYCTTTHTFVKALTTDEKQAAWRFIRIDTACVCVLSRKATRRG
notes: mature NGF, murine, the cut product of proNGF25 after the furin site RSKR (118-121 of UniProt P01139); Trp21, Trp76, Trp99. numbers count on: the mature protein; The purified NGF was made by trypsin cleavage, the NGF of the furin experiment by furin cleavage in the tube; also called mature NGF; NGF moiety; source: in the furin experiment released from proNGF25 by furin in the NMR tube
Turning to B1, the binding result in series [2] was “binds”.

The values above are taken from PMC3144226, “Conformational Plasticity of proNGF” (PLoS ONE, 2011).
